Positions count from the first letter of the chain named.
Target: T1, Human CEACAM6 Protein, Human, Recombinant (His Tag) (human, UniProt P40199 35-320, biotinylated in Example 6 (Bio-CEACAM6), site not stated)
T1 construct: Bought recombinant antigen; also called CEACAM6抗原; 人CEACAM6抗原
T1 sequence (looked up): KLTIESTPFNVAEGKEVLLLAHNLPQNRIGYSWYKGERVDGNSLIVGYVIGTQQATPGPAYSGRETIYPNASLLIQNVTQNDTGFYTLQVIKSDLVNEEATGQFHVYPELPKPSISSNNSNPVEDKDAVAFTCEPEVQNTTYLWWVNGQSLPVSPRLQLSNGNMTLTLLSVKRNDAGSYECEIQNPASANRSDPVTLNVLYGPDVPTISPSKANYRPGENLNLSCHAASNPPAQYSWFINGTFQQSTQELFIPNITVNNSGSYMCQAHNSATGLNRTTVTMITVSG
Assay: phage ELISA, phage-displayed VHH supernatant on coated CEACAM6

B1: 单域抗体NBC5 (VHH)
VHH: QVKLEESGGGLVQAGGSLRLSCAASGDIDRNDVMHWYRQAPGKQRELVAWIANNGATNYADSVKGRFTISRDNAKNTVYLQMNSLKPEDTAVYYCNVRSLVRRSRDYWGQGTQVTVSS
Question: Does B1 bind?
Answer: binds

B2: 单域抗体NBC4 (VHH)
VHH: HVQLVESGGGLVQAGGSLRLSCAVSGSIFSNDVMGWYRQAPGKQRELVAFITNGGVAHSKDPEKGRFTISRDNGKNTVYLQMNSLKPDDTAVYYCNVRSLVERSREYWGQGTQVTVSS
Question: Does B2 bind?
Answer: binds

B3: 单域抗体NBC6 (VHH)
VHH: B2 VHH with H1Q, Q3K, V5E, G54E, E63V
Question: Does B3 bind?
Answer: binds

Reference: patent CN112457402A (BEIJING NIUAMBO BIOTECHNOLOGY CO LTD, dated 2021)
